According to patent US20250042992A1 (University of California, published 2025):

T1: DLK1 ECD-mFc short form (human DLK1-MB, isoform 2) (human, UniProt P80370 24-228)
T1 construct: also called short form of the human DLK1 protein (ELISA coat); not shown: mFc (monomeric immunoglobulin Fc domain)
T1 sequence: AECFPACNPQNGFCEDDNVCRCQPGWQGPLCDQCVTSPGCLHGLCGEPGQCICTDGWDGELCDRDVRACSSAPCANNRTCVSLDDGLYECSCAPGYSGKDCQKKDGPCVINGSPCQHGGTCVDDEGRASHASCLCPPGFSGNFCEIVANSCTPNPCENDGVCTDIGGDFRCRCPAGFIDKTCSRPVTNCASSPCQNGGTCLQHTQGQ

T2: DLK1 ECD-mFc long form (human DLK1-FL, isoform 1) (human, UniProt P80370 24-303)
T2 construct: also called long form of the human DLK1 protein (ELISA coat); not shown: mFc (monomeric immunoglobulin Fc domain)
T2 sequence: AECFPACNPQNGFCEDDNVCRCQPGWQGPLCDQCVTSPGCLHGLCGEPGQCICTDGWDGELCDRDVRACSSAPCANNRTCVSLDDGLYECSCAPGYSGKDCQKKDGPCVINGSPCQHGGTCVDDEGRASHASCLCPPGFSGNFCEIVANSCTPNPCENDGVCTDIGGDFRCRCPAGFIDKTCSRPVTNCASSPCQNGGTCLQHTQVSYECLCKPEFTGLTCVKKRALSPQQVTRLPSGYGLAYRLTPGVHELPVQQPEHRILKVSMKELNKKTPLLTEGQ

T3: human DLK1 long form (isoform 1, DLK1-FL) fused to mGFP, overexpressed on HEK293T cells (human, UniProt P80370 24-383)
T3 construct: also called HEK293T DLK1 mGFP G06 (long form); DLK-FL; not shown: mGFP fluorescent protein fused to DLK1
T3 sequence: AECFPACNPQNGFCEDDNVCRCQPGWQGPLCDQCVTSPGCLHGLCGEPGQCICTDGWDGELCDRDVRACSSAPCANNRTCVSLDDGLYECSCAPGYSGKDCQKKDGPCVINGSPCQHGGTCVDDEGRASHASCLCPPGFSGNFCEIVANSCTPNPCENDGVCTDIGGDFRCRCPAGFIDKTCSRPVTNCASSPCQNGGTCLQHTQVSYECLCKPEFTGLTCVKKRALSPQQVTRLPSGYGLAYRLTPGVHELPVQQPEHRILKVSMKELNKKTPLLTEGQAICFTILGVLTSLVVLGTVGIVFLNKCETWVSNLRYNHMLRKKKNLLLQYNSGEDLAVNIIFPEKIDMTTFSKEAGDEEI

T4: monkey DLK1 fused to mGFP, overexpressed on HEK293T cells (monkey (crab-eating macaque), UniProt A0A2K5TMQ6 24-383)
T4 construct: whole, on cells; also called crab-eating macaque DLK1; not shown: mGFP fluorescent protein fused to DLK1
T4 sequence: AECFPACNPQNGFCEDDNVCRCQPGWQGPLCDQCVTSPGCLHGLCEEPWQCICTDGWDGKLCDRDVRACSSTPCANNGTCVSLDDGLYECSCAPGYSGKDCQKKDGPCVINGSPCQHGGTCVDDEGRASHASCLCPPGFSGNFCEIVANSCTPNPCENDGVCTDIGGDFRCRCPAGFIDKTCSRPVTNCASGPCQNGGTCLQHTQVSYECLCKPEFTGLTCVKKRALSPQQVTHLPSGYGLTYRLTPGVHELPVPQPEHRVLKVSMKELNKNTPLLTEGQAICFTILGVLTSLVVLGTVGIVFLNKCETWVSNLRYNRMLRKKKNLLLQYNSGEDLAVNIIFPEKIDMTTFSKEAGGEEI

T5: rat DLK1 fused to mGFP, overexpressed on HEK293T cells (rat, UniProt O70534 24-383)
T5 construct: whole, on cells; not shown: mGFP fluorescent protein fused to DLK1
T5 sequence (looked up): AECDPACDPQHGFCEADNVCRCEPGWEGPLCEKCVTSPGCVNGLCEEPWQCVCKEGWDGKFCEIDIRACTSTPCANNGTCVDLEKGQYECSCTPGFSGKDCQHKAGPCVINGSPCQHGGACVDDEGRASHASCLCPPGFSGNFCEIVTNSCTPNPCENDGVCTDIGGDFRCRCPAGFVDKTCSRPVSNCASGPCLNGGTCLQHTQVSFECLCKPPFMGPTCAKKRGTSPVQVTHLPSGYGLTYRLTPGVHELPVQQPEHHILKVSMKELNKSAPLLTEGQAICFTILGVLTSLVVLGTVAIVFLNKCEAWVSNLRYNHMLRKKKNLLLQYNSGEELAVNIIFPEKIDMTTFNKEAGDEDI

T6: recombinant fusion protein of human DLK1 extracellular domain (ECD) and monomeric immunoglobulin Fc domain … (human, UniProt P80370 24-303)
T6 construct: also called human DLK1 ECD-mFc fusion protein; not shown: monomeric immunoglobulin Fc domain (mFc)
T6 sequence: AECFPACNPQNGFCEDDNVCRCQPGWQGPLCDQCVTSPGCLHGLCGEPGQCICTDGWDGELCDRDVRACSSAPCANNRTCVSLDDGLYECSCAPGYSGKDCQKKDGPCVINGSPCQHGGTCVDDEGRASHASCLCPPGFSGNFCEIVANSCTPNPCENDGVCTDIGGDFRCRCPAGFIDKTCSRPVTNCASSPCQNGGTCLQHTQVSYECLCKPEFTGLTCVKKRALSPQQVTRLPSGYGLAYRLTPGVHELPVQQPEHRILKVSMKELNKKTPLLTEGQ


Columns and labels:
[1] = molecular target: T1, DLK1 ECD-mFc short form (human DLK1-MB, …); assay: ELISA, plate coated with short form of DLK1 ECD-mFc (isoform 2), anti-human IgG Fc-HRP, OD450nm
Method: (§1) Plates were incubated with DLK1 Abs serially diluted 2-fold starting from 400 ng/ml in 5% BSA/PBS at RT for 1.5 hrs. Mouse anti-human IgG Fc secondary antibody conjugated to HRP (Novus catalog number: NBP1-78623H) at 1:3000 dilution was applied to each well at 50 μl/well and further incubated at RT for 1 hr. The ELISA was developed first with Thermo Scientific Pierce 1-Step™ Ultra TMB-ELISA substrate solution and then with addition of sulfuric acid stop solution. The ELISA plate was read on a plate reader at 450 nm.

[2] = molecular target: T2, DLK1 ECD-mFc long form (human DLK1-FL, …); assay: ELISA, plate coated with long form of DLK1 ECD-mFc (isoform 1), anti-human IgG Fc-HRP, OD450nm
Method: as §1

[3] = molecular target: T3, human DLK1 long form (isoform 1, …); assay: KinExA on HEK293T DLK1mGFP Human Clone G06 cells detached by Versene; Error% 5.90; 95% CI not defined; equilibrium curves 400pM, 50nM
[4] = molecular target: T4, monkey DLK1 fused to mGFP, …; assay: KinExA on HEK293T DLK1mGFP Monkey mass pop cells detached by Versene; Error% 3.92; 95% CI 5.15nM - 17.83nM; equilibrium curves 400pM, 50nM
[5] = molecular target: T5, rat DLK1 fused to mGFP, overexpressed …; assay: KinExA on HEK293T DLK1mGFP Rat mass pop cells detached by Versene; Error% 3.17; 95% CI 1.82nM - 13.53nM; equilibrium curves 400pM, 50nM
[6] = molecular target: T6, recombinant fusion protein of human …; assay: affinity on recombinant DLK1 ECD-mFc; method not stated

Row | EC50 [1] [nM] | EC50 [2] [nM] | Kd [3] [nM] | Kd [4] [nM] | Kd [5] [nM] | Kd [6] [nM] | Binder
1 | 0.81 | 0.87 |  |  |  |  | humanized anti-DLK1 antibody 04-0561-F1 (IgG1) (antibody, V domains shown) VH: QVQLQESGPGLVKPSETLSLTCTVSGFSLSIYSVHWVRQPPGKGLEWIGLIWGGGSTDYNPSLKSRVTISKDTSKNQVSLKLSSVTAADTAVYYCARKEGNYLWFAYWGQGTLVTVSS VL: DIVMTQSPDSLAVSLGERVTMNCKSSQSLLQSSNQKNYLAWYQQKPGQPPKLLVYFASTRESGVPDRFSGSGSGTDFTLTISSVQAEDVAVYYCQQHYSIPLTFGQGTKLEIKR
2 |  |  | 5.34 | 9.89 | 5.96 | ~0.3 | humanized anti-DLK1 antibody 04-0547-h2 (IgG1) (antibody, V domains shown, human kappa (P01834) and human IgG1 (P01857) constant regions) VH: EVQLVESGGGLVQPGGSLRLSCAASGFSISDYYMAWVRQAPGKGLEWVANINYDGTNTYYADSVKGRFTISRDNSKNTLYLQMNSLRAEDTAVYYCVRSYYYYGMEYWGQGTTVTVSS VL: DIQMTQSPSSLSASVGDRVTITCRASHDVSTAVAWYQQKPGKAPKLLIYSASYRYTGVPSRFSGSGSGTDFTLTISSLQPEDFATYYCQQHYRIPLTFGQGTKLEIK
